Results on 1 protein are retold here after paper PMC4973843, “Dimeric chlorite dismutase from the nitrogen‐fixing cyanobacterium C yanothece sp. PCC7425” (Molecular Microbiology, 2015).

Substrate in the data set: [O-][Cl+]O
Briefly: Clark-type oxygen electrode, O2 release. The data set is classed as biochemical, Cyanothece sp. PCC 7425. The conditions noted are these: 50 mM citrate phosphate pH 5.0, 30°C.

B1: CCld (chlorite dismutase from Cyanothece sp. PCC7425) (Cyanothece sp. PCC 7425) (protein)
chain: NNRYSFIGGRTGQWQVVKIRNVLGPGLQLVEKVNILNGAVAEIPLDSAWRLQGFASNIRYAIRTELEALQAVQPMLNRAEAILAVLIPIKKSAQWWEMAQDERRDIFERESHHTAVGLEYLPGVARRLLHCRDLGEEFDFLTWFEFAPEHSSAFNELLLRMRASKEWEYVEREVEVWLKRL
notes: heme b
Take B1: the Michaelis-Menten constant (Km) was 162 ± 10.0 µM and the turnover number (kcat) is 1144 ± 23.8 s⁻¹.
